Experimental data from patent US20260242478A1 (published 2026).
Where no end group is shown, it is not given here.

Tests used:
[1] = target: T1, Anti-PSMA Fab (SEQ ID NOs: 19, 20); assay: phage binding ELISA on plate-captured PSMA Fab, wells pre-incubated with PSMA antigen as competitor
T1 construct: Biotinylated and captured on neutravidin coated plates in the phage ELISA; also called 006 PSMA Fab
Protocol: (§1) Clonal phage were harvested as crude supernatants and screened via standard ELISAs. […] Prior to the addition of clonal phage. wells were incubated with blocking buffer and PSMA antigen or blocking buffer alone. Without washing or aspirating, clonal phage supernatants were then added to the wells and incubated for a short time. Wells were then washed followed by detection of bound phage using a horse radish conjugated anti-M13 antibody.

[2] = target: T1, Anti-PSMA Fab (SEQ ID NOs: 19, 20); assay: phage binding ELISA, clonal phage on plate-captured biotinylated PSMA Fab
Protocol: as §1

[3] = target: T2, Anti-PSMA Fab (SEQ ID NOs: 19, 20); assay: phage ELISA; PSMA Fab on plate pre-incubated with PSMA antigen as competitor, anti-M13-HRP detection;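 also: clonal phage from crude supernatants added without washing to wells preblocked with or without PSMA antigen, washed, bound phage read out by ELISA with HRP-linked anti-M13 antibody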
T2 construct: Biotinylated and captured on neutravidin coated plates in the phage ELISA; also called 006 PSMA Fab
Protocol: as §1

[4] = target: T2, Anti-PSMA Fab (SEQ ID NOs: 19, 20); assay: phage ELISA; biotinylated PSMA Fab on neutravidin plate, bound phage detected with anti-M13-HRP;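 also: crude clonal phage supernatants added, without a wash, to wells pretreated with PSMA antigen in blocking buffer or with blocking buffer only, then briefly incubated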
Protocol: as §1

[5] = target: T3, PSMA Fab (006 PSMA Fab); assay: clonal phage ELISA; biotinylated PSMA Fab on neutravidin plate pre-incubated with competitor PSMA antigen; anti-M13-HRP detection
T3 construct: also called Anti-PSMA Fab; anti-PSMA Fab
Protocol: as §1

[6] = target: T3, PSMA Fab (006 PSMA Fab); assay: clonal phage ELISA; biotinylated PSMA Fab on neutravidin plate, blocking buffer alone; anti-M13-HRP detection;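 also: clonal phage applied as crude supernatants to wells preincubated with blocking buffer, binding read by ELISA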
Protocol: as §1

[7] = target: T4, Anti-PSMA Fab (SEQ ID NOs: 19, 20); assay: phage ELISA; biotinylated PSMA Fab on neutravidin plate, clonal phage supernatant, anti-M13-HRP detection;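 also: wells were preincubated with blocking buffer containing PSMA antigen or with blocking buffer only, then phage supernatant was added without washing for a brief incubation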
T4 construct: Biotinylated and captured on neutravidin coated plates in the phage ELISA; also called 006 PSMA Fab
Protocol: as §1

[8] = target: T4, Anti-PSMA Fab (SEQ ID NOs: 19, 20); assay: phage ELISA; PSMA Fab on plate pre-incubated with PSMA antigen as competitor, anti-M13-HRP detection; remark: listed apart in the source;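 also: clonal phage from crude supernatants added without washing to wells preblocked with or without PSMA antigen, washed, bound phage read out by ELISA with HRP-linked anti-M13 antibody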
Protocol: as §1

Row | Binder | Anti-PSMA Fab signal in the presence of PSMA [1] | Anti-PSMA Fab (SEQ ID NOs: 19, 20) signal [2] | Phage binding ELISA, Anti-PSMA Fab signal in the presence of PSMA [3] | Phage binding ELISA, Anti-PSMA Fab signal [4] | further results
1 | FLKWCTPEWMCSDV [Phage-2223] | 0.128 | 1.58 | – | – | –
2 | EVKWCIPSWMCESE (Tested as clonal phage supernatant, with the peptide fused to pIII of the bacteriophage) [Phage-2217] | – | – | 0.0904 | 1.59 | –
3 | LAYWCTPAWMCEGF [Phage-2226] | 0.112 | 1.57 | – | – | –
4 | EARWCTPPWMCAYM (cysteine pairing not given here; also: displayed on bacteriophage by fusion to pIII) [Phage-2315] | – | – | – | – | Phage binding ELISA signal, Anti-PSMA Fab in presence of PSMA antigen [5]: 0.0724; Phage binding ELISA signal, Anti-PSMA Fab [6]: 1.47
5 | EVKWCTPPWMCMFD (tested as crude phage supernatant) [Phage-1993] | – | – | – | – | Phage binding ELISA, Anti-PSMA Fab signal [7]: 1.86; Phage binding ELISA, Anti-PSMA Fab signal in the presence of PSMA [8]: 0.073
6 | VIPLCSPPWMCFMS (Tested as clonal phage supernatant, with the peptide fused to pIII of the bacteriophage) [Phage-2213] | – | – | 0.0631 | 1.6 | –
7 | WAQWCTPSWMCEGF (Tested as clonal phage supernatant, with the peptide fused to pIII of the bacteriophage) [Phage-2216] | – | – | 0.0929 | 1.59 | –
8 | PVKWCIPDWMCAYL (cysteine pairing not given here; also: displayed as fusion to phage pIII, tested as crude phage supernatant) [Phage-1992] | – | – | – | – | Phage binding ELISA, Anti-PSMA Fab signal [7]: 1.86; Phage binding ELISA, Anti-PSMA Fab signal in the presence of PSMA [8]: 0.115
9 | MEQWCIPQWMCSGF [Phage-2317] | – | – | – | – | Phage binding ELISA signal, Anti-PSMA Fab in presence of PSMA antigen [5]: 0.0911; Phage binding ELISA signal, Anti-PSMA Fab [6]: 1.46
10 | TDMWCIPPWMCERI [Phage-2230] | 0.0846 | 1.57 | – | – | –
11 | MPNWCTPTWMCQGF [Phage-2234] | 0.0682 | 1.57 | – | – | –
12 | SELWCIPPWMCNFL [Phage-2227] | 0.0684 | 1.57 | – | – | –
13 | MGKWCIPPWMCVVD (tested as crude phage supernatant) [Phage-1995] | – | – | – | – | Phage binding ELISA, Anti-PSMA Fab signal [7]: 1.86; Phage binding ELISA, Anti-PSMA Fab signal in the presence of PSMA [8]: 0.123
14 | FDKWCIPTWMCELV (tested as crude phage supernatant) [Phage-1994] | – | – | – | – | Phage binding ELISA, Anti-PSMA Fab signal [7]: 1.86; Phage binding ELISA, Anti-PSMA Fab signal in the presence of PSMA [8]: 0.145
15 | PTKWCIPEWMCSVI (Tested as clonal phage supernatant, with the peptide fused to pIII of the bacteriophage) [Phage-2207] | – | – | 0.0587 | 1.61 | –
16 | SENWCIPAWMCSGF (Tested as clonal phage supernatant, with the peptide fused to pIII of the bacteriophage) [Phage-2219] | – | – | 0.111 | 1.59 | –
17 | TEKWCIPSWMCEIS (Tested as clonal phage supernatant, with the peptide fused to pIII of the bacteriophage) [Phage-2212] | – | – | 0.0837 | 1.6 | –
18 | GHQWCIPQWMCVGL (Tested as clonal phage supernatant, with the peptide fused to pIII of the bacteriophage) [Phage-2221] | – | – | 0.0809 | 1.58 | –
19 | GMLACTPAWMCEGF [Phage-2316] | – | – | – | – | Phage binding ELISA signal, Anti-PSMA Fab in presence of PSMA antigen [5]: 0.0923; Phage binding ELISA signal, Anti-PSMA Fab [6]: 1.47
20 | GVKWCTPPWMCEVA (Tested as clonal phage supernatant, with the peptide fused to pIII of the bacteriophage) [Phage-2215] | – | – | 0.0672 | 1.59 | –
21 | FNKWCVPAWMCSDM [Phage-2235] | 0.0946 | 1.56 | – | – | –
22 | LLKWCTPPWMCELH [Phage-2229] | 0.0932 | 1.57 | – | – | –

Row | Binder | Anti-PSMA Fab signal in the presence of PSMA [1] | Anti-PSMA Fab (SEQ ID NOs: 19, 20) signal [2] | Phage binding ELISA, Anti-PSMA Fab signal in the presence of PSMA [3] | Phage binding ELISA, Anti-PSMA Fab signal [4] | further results
23 | TEKWCIPQWMCEAT (cysteine pairing not given here; also: displayed on phage, fused to pIII, Peptide-180 library clone, tested as clonal phage (peptide fused to the pIII filament of the bacteriophage)) [Phage-2222] | 0.0783 | 1.58 | – | – | –
24 | LFKVCTPSWMCSGF [Phage-2225] | 0.0813 | 1.58 | – | – | –
25 | QDHWCVPQWMCEML (Tested as clonal phage supernatant, with the peptide fused to pIII of the bacteriophage) [Phage-2209] | – | – | 0.07 | 1.61 | –
26 | VSAWCIPPWMCGTN [Phage-2237] | 0.0801 | 1.56 | – | – | –
27 | AIKWCTPPWMCDWH [Phage-2224] | 0.131 | 1.58 | – | – | –
28 | THNWCTPQWMCDGF (Tested as clonal phage supernatant, with the peptide fused to pIII of the bacteriophage) [Phage-2210] | – | – | 0.0628 | 1.6 | –
29 | PGKWCIPAWMCSLV (Tested as clonal phage supernatant, with the peptide fused to pIII of the bacteriophage) [Phage-2211] | – | – | 0.157 | 1.6 | –
30 | FVNWCIPTWMCPEI [Phage-2314] | – | – | – | – | Phage binding ELISA signal, Anti-PSMA Fab in presence of PSMA antigen [5]: 0.233; Phage binding ELISA signal, Anti-PSMA Fab [6]: 1.47
31 | LEKWCTPVWMCEGV [Phage-2318] | – | – | – | – | Phage binding ELISA signal, Anti-PSMA Fab in presence of PSMA antigen [5]: 0.0702; Phage binding ELISA signal, Anti-PSMA Fab [6]: 1.46
32 | QLNWCRPAWMCEGF [Phage-2232] | 0.128 | 1.57 | – | – | –
33 | GSNWCKPAWMCEIM (tested as crude phage supernatant) [Phage-1996] | – | – | – | – | Phage binding ELISA, Anti-PSMA Fab signal [7]: 1.86; Phage binding ELISA, Anti-PSMA Fab signal in the presence of PSMA [8]: 0.0723
34 | EPKWCTPEWMCLNL (Tested as clonal phage supernatant, with the peptide fused to pIII of the bacteriophage) [Phage-2220] | – | – | 0.0915 | 1.58 | –
35 | LVKWCIPQWMCEQA [Phage-2228] | 0.0712 | 1.57 | – | – | –
36 | EIQWCTPSWMCPWL [Phage-2233] | 0.0668 | 1.57 | – | – | –
37 | PRKWCIPAWMCEII [Phage-2236] | 0.0733 | 1.56 | – | – | –
38 | LEKWCIPAWMCAVL (cysteine pairing not given here; also: fused to pIII of bacteriophage, Tested as clonal phage supernatant, with the peptide fused to pIII of the bacteriophage) [Phage-2206] | – | – | 0.078 | 1.61 | –
39 | PEKWCIPEWMCDAL (Tested as clonal phage supernatant, with the peptide fused to pIII of the bacteriophage; Read from the row with '-' as the Peptide-180 residue: PEKWCIPEWMCDAL) [Phage-2214] | – | – | 0.0578 | 1.6 | –
40 | LSKWCIPEWMCAVM (cysteine pairing not given here; also: pIII fusion on bacteriophage (not given here)) [Phage-2231] | 0.0848 | 1.57 | – | – | –
41 | ALHWCIPEWMCSSM (Tested as clonal phage supernatant, with the peptide fused to pIII of the bacteriophage) [Phage-2208] | – | – | 0.103 | 1.61 | –
42 | LEKWCMPPWMCSGT (cysteine pairing not given here; also: displayed on bacteriophage by fusion to pIII) [Phage-2313] | – | – | – | – | Phage binding ELISA signal, Anti-PSMA Fab in presence of PSMA antigen [5]: 0.0701; Phage binding ELISA signal, Anti-PSMA Fab [6]: 1.47
43 | VPKQCVPEWMCSGF (Tested as clonal phage supernatant, with the peptide fused to pIII of the bacteriophage) [Phage-2218] | – | – | 0.0779 | 1.59 | –
